Results: the supplement of paper PMC11780869

System: Bacillus subtilis
Test: cleaved RNA product abundance (RNA/gDNA barcode ratio) relative to median wild-type variant (ratio to wild type); higher = more accumulation of the downstream cleavage product
Conditions: cleavage site: cggR-gapA (positions -7 to +36 mutated)
Protocol: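 MPRA in B. subtilis. Mutagenized RNase Y cleavage-site regions (9% mutation rate) were inserted into a barcoded reporter mRNA (truncated aprE or tetM). Cells were grown in LB at 37°C to OD600 0.3. The cleaved RNA isoform was gel-purified and its barcodes counted; the RNA:gDNA barcode ratio was normalised to the median wild-type variant, and the median over barcodes is reported per variant. The printed sequence is the variable window only; the reporter flanks are not printed.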

[1] = experiment (reporter, strain, medium): exp 2b: truncated aprE reporter, strain BJT200
[2] = experiment (reporter, strain, medium): exp 4a: truncated aprE reporter, strain BJT201 with 2% xylose (RNase J1 expressed)

Sequence | cleaved RNA product abundance [1] | cleaved RNA product abundance [2]
ACAGACGAAGGAGCCGCAAAGAAATTATTAAGGGATGATTAATCCCTCAATATAAATATCTCTCACTTATTTAAA | 0.816 | 0.599
ACAGACGAAGGAGCCGCAAAGAAATTATTAAGGGATGGATAATCCCTCAATATAAATATCTCTCACTTATTTAAA | – | 0.62
ACAGACGAAGGAGCCGCAAAGAAATTATTAAGGGATGTATAATCCCTCAATATAAATATCTCTCACTTATTTAAA | 0.711 | 0.789
ACAGACGAAGGAGCCGCAAAGAAATTATTAAGGGATTAATAATCCCTCAATATAAATATCTCTCACTTATTTAAA | 0.978 | 0.912
ACAGACGAAGGAGCCGCAAAGAAATTATTAAGGGCTGAATAATCCCTCAATATAAATATCTCTCACTTATTTAAA | – | 0.498
ACAGACGAAGGAGCCGCAAAGAAATTATTAAGGGGTGAATAATCCCTCAATATAAATATCTCTCACTTATTTAAA | 0.541 | 0.734
ACAGACGAAGGAGCCGCAAAGAAATTATTAAGGGTTGAATAATCCCTCAATATAAATATCTCTCACTTATTTAAA | – | 0.365
ACAGACGAAGGAGCCGCAAAGAAATTATTAAGGTATGAATAATCCCTCAATATAAATATCTCTCACTTATTTAAA | 0.122 | 0.105
ACAGACGAAGGAGCCGCAAAGAAATTATTAAGTGATGAATAATCCCTCAAAATAAATATCTCTCACTTATTTAAA | 0.117 | 0.0994
ACAGACGAAGGAGCCGCAAAGAAATTATTAAGTGATGAATAATCCCTCAATATAAATATCTCTCACTTATTTAAA | 0.107 | 0.125
ACAGACGAAGGAGCCGCAAAGAAATTATTAATGAATGAATAATCCCTCAATATAAATATCTCTCACTTATTTAAA | – | 0.152
ACAGACGAAGGAGCCGCAAAGAAATTATTAATGGATGAATAATCCCTCAATATAAATATCTCTCACTTATTTAAA | 0.122 | 0.169
ACAGACGAAGGAGCCGCAAAGAAATTATTAATGTATGAATAATCCCTCAATATAAATATCTCTCACTTATTTAAA | 0.117 | 0.111
ACAGACGAAGGAGCCGCAAAGAAATTATTACGGGATGAATAATCCCTCAATATAAATATCTCTCACTTATTTAAA | – | 0.396
ACAGACGAAGGAGCCGCAAAGAAATTATTAGGGGATGAATAATCCCTCAATATAAATATCTCTCACTTATTTAAA | – | 0.586
ACAGACGAAGGAGCCGCAAAGAAATTATTAGGGGATGAATAATCCCTCCATATAAATATCTCTCACTTATTTAAA | 0.188 | –
ACAGACGAAGGAGCCGCAAAGAAATTATTATGGGATGAATAATCCCTCAATATAAATATCTCTCACTTATTTAAA | – | 0.277
ACAGACGAAGGAGCCGCAAAGAAATTATTCAGGGATGAATAATCCCTCAATATAAATATCTCTCACTTATTTAAA | 0.575 | 0.747
ACAGACGAAGGAGCCGCAAAGAAATTATTTAGGGATGAATAATCCCTCAATATAAATATCTCTCACTTATTTAAA | – | 0.718

Sequence | cleaved RNA product abundance [1] | cleaved RNA product abundance [2]
ACAGACGAAGGAGCCGCAAAGAAATTCTTAAGGGATGAATAATCCCTCAATATAAATATCTCTCACTTATTTAAA | 0.186 | 0.199
ACAGACGAAGGAGCCGCAAAGAAATTGTTAAGGGATGAATAATCCCTCAATATAAATATCTCTCACTTATTTAAA | 0.377 | –
ACAGACGAAGGAGCCGCAAAGAAATTTTTAAGGGATGAATAATCCCTCAATATAAATATCTCTCACTTATTTAAA | 0.206 | 0.264
ACAGACGAAGGAGCCGCAAAGAACATATTAAGGGATGAATAATCCCTCAATATAAATATCTCTCACTTATTTAAA | 0.607 | 0.499
ACAGACGAAGGAGCCGCAAAGAACCTATTAAGGGATGAATAATCCCTCAATATAAATATCTCTCACTTATTTAAA | 0.18 | 0.309
ACAGACGAAGGAGCCGCAAAGAACGTATTAAGGGATGAATAATCCCTCAATATAAATATCTCTCACTTATTTAAA | – | 0.724
ACAGACGAAGGAGCCGCAAAGAACTAATTAAGGGATGAATAATCCCTCAATATAAATATCTCTCACTTATTTAAA | – | 0.321
ACAGACGAAGGAGCCGCAAAGAACTGATTAAGGGATGAATAATCCCTCAATATAAATATCTCTCACTTATTTAAA | – | 0.238
ACAGACGAAGGAGCCGCAAAGAACTTAATAAGGAATGAATAATCCCTCAATATAAATATCTCTCACTTATTTAAA | – | 0.133
ACAGACGAAGGAGCCGCAAAGAACTTAATAAGGGATGAATAATCCCTCAATATAAATATCTCTCACTTATTTAAA | – | 0.167
ACAGACGAAGGAGCCGCAAAGAACTTACTAAGGGATGAATAATCCCTCAATATAAATATCTCTCACTTATTTAAA | – | 0.237
ACAGACGAAGGAGCCGCAAAGAACTTATAAAGGGACGAATAATCCCTCAATATAAATATCTCTCACTTATTTAAA | – | 0.162
ACAGACGAAGGAGCCGCAAAGAACTTATAAAGGGATGAATAATCCCTCAATATAAATATCTCTCACTTATTTAAA | 0.24 | 0.263
ACAGACGAAGGAGCCGCAAAGAACTTATCAAGGGATGAATAATCCCTCAATATAAATATCTCTCACTTATTTAAA | – | 0.32
ACAGACGAAGGAGCCGCAAAGAACTTATGAAGGGATGAATAATCCCTCAATATAAATATCTCTCACTTATTTAAA | 0.274 | –
ACAGACGAAGGAGCCGCAAAGAACTTATTAAAGGATGAATAATCCCTCAATATAAATATCTCTCACTTATTTAAA | 0.166 | –
ACAGACGAAGGAGCCGCAAAGAACTTATTAACGGATGAATAATCCCTCAATATAAATATCTCTCACTTATTTAAA | – | 0.112
ACAGACGAAGGAGCCGCAAAGAACTTATTAAGAGATGAATAATCCCTCAATATAAATATCTCTCACTTATTTAAA | 0.092 | 0.147
ACAGACGAAGGAGCCGCAAAGAACTTATTAAGCGATGAATAATCCCTCAATATAAATATCTCTCACTTATTTAAA | 0.0844 | 0.157

Sequence | cleaved RNA product abundance [1] | cleaved RNA product abundance [2]
ACAGACGAAGGAGCCGCAAAGAACTTATTAAGGAATGAATAATCCCTCAATATAAATATCTCTCACTTATTTAAA | – | 0.117
ACAGACGAAGGAGCCGCAAAGAACTTATTAAGGCATGAATAATCCCTCAATATAAATATCTCTCACTTATTTAAA | 0.114 | 0.099
ACAGACGAAGGAGCCGCAAAGAACTTATTAAGGGAAGAATAATCCCTCAATATAAATATCTCTCACTTATTTAAA | – | 0.235
ACAGACGAAGGAGCCGCAAAGAACTTATTAAGGGACGAATAATCCCTCAATATAAATATCTCTCACTTATTTAAA | 0.375 | 0.389
ACAGACGAAGGAGCCGCAAAGAACTTATTAAGGGAGGAATAATCCCTCAATATAAATATCTCTCACTTATTTAAA | – | 0.315
ACAGACGAAGGAGCCGCAAAGAACTTATTAAGGGATAAATAATCCCTCAATATAAATATCTCTCACTTATTTAAA | 0.556 | 0.477
ACAGACGAAGGAGCCGCAAAGAACTTATTAAGGGATCAATAATCCCTCAATATAAATATCTCTCACTTATTTAAA | 0.282 | 0.27
ACAGACGAAGGAGCCGCAAAGAACTTATTAAGGGATGAAAAATCCCTCAATATAAATATCTCTCACTTATTTAAA | – | 0.521
ACAGACGAAGGAGCCGCAAAGAACTTATTAAGGGATGAACAATCCCTCAATATAAATATCTCTCACTTATTTAAA | – | 0.344
ACAGACGAAGGAGCCGCAAAGAACTTATTAAGGGATGAATAAACCCTCAATATAAATATCTCTCACTTATTTAAA | 0.224 | 0.265
ACAGACGAAGGAGCCGCAAAGAACTTATTAAGGGATGAATAACCCCTCAATATAAATATCTCTCACTTATTTAAA | 0.235 | –
ACAGACGAAGGAGCCGCAAAGAACTTATTAAGGGATGAATAATACCTCAATATAAATATCTCTCACTTATTTAAA | 0.0995 | 0.165
ACAGACGAAGGAGCCGCAAAGAACTTATTAAGGGATGAATAATCACTCAATATAAATATCTCTCACTTATTTAAA | 0.102 | 0.152
ACAGACGAAGGAGCCGCAAAGAACTTATTAAGGGATGAATAATCCATCAATATAAATATCTCTCACTTATTTAAA | 0.15 | 0.209
ACAGACGAAGGAGCCGCAAAGAACTTATTAAGGGATGAATAATCCCACAATATAAATATCTCTCACTTATTTAAA | 0.207 | 0.292
ACAGACGAAGGAGCCGCAAAGAACTTATTAAGGGATGAATAATCCCCCAATATAAATATCTCTCACTTATTTAAA | – | 0.25
ACAGACGAAGGAGCCGCAAAGAACTTATTAAGGGATGAATAATCCCTAAATATAAATATCTCTCACTTATTTAAA | 0.258 | 0.454
ACAGACGAAGGAGCCGCAAAGAACTTATTAAGGGATGAATAATCCCTCAAAATAAATATCTCTCACTTATTTAAA | – | 0.208
ACAGACGAAGGAGCCGCAAAGAACTTATTAAGGGATGAATAATCCCTCAACATAAATATCTCTCACTTATTTAAA | – | 0.227
